The values below come from patent publication US20090149389A1 (PURDUE RESEARCH FOUNDATION, published 2009).

Holding throughout (experiment): cell-based or functional assay
The target of assay [1] is AMPK (r) (rat (r), UniProt Q09137 1-552, limits assumed).
For assay [2], the target named is IGF-IR (h) (human (h), UniProt P08069 959-1367, limits assumed).
The target in assay [3] is T1, DYRK2 (h) (human (h), UniProt Q92630 1-601, limits assumed).
T1 sequence (looked up): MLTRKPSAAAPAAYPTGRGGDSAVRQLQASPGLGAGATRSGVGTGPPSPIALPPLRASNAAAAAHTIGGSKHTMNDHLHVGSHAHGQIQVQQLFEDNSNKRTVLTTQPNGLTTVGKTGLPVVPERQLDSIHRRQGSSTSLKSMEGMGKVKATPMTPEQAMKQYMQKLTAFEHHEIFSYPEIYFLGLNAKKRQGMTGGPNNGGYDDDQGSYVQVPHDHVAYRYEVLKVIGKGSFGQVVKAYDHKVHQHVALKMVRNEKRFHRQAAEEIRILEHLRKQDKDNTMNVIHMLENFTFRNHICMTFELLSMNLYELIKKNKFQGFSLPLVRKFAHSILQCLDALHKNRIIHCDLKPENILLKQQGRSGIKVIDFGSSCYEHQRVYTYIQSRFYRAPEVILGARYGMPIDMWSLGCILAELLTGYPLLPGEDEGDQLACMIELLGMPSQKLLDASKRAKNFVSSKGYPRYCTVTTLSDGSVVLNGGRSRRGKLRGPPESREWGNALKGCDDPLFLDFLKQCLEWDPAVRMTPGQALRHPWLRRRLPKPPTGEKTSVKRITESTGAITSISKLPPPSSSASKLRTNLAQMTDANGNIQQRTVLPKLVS

For assay [4], the target named is T2, Ret (h) (human (h), UniProt P07949 658-1114, limits assumed).
T2 sequence (looked up): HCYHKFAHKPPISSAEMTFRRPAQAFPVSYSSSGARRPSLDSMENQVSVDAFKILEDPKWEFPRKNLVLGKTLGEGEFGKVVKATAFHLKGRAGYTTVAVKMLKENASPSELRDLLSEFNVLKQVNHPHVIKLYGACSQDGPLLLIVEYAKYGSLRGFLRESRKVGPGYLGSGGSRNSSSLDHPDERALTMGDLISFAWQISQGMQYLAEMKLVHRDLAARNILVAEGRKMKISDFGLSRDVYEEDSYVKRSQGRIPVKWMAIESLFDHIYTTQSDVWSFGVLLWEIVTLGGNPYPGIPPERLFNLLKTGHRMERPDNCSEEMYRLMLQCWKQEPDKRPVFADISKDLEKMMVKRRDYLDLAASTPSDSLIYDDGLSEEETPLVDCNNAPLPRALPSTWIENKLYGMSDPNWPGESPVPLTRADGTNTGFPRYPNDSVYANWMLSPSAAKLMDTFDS

Assay [5] addresses PKB β (h) (human (h), UniProt P31751 1-481, limits assumed).
Assay [6] has as its target Src(1-530) (h) (human (h), UniProt P12931 1-530).
For assay [7], the target named is EGFR (h) (human (h), UniProt P00533 696-1210, limits assumed).
In assay [8] the target is T3, PhKγ2 (h) (human (h), UniProt P15735 1-406).
T3 sequence (looked up): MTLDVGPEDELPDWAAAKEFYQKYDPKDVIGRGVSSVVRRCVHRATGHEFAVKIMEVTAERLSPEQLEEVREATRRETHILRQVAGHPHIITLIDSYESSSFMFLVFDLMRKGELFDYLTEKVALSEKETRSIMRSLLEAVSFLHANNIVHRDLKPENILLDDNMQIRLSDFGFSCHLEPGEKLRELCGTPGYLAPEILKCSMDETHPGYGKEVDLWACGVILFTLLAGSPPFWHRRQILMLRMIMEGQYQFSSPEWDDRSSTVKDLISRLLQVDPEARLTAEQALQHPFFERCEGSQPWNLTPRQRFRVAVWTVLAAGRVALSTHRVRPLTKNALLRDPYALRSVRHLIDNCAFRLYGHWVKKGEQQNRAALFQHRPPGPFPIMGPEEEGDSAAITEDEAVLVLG

Assay [9] addresses Pim-1 (h) (human (h), UniProt P11309 1-313).
The target in assay [10] is Abl (h) (human (h), UniProt P00519 27-1130, limits assumed).
Chain of Abl (h) (P00519 27-1130 limits assumed): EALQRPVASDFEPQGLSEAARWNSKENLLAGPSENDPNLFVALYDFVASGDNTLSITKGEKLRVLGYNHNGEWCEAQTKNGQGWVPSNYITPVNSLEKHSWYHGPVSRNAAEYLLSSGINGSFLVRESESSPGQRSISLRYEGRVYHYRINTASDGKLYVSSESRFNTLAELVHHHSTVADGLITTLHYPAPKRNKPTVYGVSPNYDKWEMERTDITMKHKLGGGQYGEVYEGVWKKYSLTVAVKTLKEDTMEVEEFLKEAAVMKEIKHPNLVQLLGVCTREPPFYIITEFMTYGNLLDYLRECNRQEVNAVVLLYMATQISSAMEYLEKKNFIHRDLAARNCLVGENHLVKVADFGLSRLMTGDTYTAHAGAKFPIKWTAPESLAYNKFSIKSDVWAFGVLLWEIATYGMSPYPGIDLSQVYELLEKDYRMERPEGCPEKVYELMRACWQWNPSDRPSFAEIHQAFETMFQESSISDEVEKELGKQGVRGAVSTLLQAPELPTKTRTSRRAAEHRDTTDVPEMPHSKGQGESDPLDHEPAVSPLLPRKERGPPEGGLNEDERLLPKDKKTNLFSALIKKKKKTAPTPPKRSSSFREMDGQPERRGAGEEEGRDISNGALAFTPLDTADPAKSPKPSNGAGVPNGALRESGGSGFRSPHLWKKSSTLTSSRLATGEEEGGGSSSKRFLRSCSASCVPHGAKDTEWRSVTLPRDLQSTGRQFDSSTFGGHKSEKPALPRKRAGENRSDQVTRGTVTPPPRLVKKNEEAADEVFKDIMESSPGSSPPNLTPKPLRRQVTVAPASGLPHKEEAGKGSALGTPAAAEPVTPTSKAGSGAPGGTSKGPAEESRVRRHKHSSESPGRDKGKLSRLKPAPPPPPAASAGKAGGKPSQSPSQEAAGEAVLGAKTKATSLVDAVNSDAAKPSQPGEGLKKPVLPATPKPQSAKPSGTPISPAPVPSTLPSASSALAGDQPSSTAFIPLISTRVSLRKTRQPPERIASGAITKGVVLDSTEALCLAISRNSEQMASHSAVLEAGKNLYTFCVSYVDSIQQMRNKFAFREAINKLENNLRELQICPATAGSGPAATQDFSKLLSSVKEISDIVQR
In assay [11] the target is MAPKAP-K2 (h) (human (h), UniProt P49137 46-400, limits assumed).
Chain of MAPKAP-K2 (h) (P49137 46-400 limits assumed): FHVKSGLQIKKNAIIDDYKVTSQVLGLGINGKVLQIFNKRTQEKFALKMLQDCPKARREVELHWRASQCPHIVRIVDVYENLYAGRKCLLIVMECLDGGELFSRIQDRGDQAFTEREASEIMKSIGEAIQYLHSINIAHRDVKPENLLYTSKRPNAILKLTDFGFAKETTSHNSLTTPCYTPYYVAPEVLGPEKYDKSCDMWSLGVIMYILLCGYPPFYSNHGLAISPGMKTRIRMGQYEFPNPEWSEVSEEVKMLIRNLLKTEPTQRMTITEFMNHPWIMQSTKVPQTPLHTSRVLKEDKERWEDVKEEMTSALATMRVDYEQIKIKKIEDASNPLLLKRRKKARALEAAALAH
In assay [12] the target is T4, Flt3 (h) (human (h), UniProt P36888 564-993, limits assumed).
T4 sequence (looked up): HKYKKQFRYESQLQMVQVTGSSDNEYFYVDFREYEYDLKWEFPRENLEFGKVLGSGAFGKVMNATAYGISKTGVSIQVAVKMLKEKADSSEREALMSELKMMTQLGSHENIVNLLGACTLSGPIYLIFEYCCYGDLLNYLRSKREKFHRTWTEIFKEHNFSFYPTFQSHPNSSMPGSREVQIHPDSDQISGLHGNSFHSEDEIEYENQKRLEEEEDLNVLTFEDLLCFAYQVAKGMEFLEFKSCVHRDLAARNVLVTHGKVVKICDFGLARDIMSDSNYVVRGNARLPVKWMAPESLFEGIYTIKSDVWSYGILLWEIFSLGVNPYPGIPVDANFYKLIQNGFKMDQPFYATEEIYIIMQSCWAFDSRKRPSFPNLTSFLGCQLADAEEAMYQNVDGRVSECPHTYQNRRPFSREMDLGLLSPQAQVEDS

In assay [13] the target is BTK (h) (human (h), UniProt Q06187 1-659).
Chain of BTK (h) (Q06187 whole entry): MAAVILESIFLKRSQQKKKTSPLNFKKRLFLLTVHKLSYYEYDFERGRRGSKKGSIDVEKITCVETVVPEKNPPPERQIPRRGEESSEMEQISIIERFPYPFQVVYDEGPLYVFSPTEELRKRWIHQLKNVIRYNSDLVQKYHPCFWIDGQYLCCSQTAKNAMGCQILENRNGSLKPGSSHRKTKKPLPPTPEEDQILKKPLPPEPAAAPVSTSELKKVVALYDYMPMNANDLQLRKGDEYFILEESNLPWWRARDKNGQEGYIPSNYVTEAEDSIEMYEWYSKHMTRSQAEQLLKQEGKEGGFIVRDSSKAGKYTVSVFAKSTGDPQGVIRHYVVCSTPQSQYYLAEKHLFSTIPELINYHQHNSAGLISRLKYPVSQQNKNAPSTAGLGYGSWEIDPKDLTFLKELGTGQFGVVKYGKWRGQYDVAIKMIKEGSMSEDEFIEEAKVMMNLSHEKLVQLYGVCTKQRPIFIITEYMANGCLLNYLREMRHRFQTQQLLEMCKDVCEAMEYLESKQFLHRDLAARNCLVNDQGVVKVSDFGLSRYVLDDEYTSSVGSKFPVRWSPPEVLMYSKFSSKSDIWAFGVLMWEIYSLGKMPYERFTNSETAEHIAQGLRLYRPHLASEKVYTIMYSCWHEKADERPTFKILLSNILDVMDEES
Assay [14] addresses MSK2 (h) (human (h), UniProt O75676 1-772, limits assumed).
Assay [15] concerns the target PDGFRβ (h) (human (h), UniProt P09619 558-1106, limits assumed).
Assay [16] addresses ASK1 (h) (human (h), UniProt Q99683 649-946, limits assumed).

Chain of PDGFRβ (h) (P09619 558-1106 limits assumed): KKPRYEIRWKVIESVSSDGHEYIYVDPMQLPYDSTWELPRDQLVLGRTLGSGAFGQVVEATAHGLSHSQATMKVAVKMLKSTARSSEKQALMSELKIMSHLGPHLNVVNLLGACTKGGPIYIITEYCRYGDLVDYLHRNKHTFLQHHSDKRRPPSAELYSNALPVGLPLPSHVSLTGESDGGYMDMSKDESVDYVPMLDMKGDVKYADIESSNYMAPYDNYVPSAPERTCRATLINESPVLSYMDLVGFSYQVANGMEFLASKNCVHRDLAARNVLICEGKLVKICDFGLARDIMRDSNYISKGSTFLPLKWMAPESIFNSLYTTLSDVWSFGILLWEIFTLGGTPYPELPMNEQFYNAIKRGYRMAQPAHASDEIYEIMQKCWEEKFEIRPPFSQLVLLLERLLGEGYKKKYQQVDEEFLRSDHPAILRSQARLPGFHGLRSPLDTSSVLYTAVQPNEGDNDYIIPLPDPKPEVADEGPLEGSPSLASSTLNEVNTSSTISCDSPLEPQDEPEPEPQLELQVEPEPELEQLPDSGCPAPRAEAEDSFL
Chain of ASK1 (h) (Q99683 649-946 limits assumed): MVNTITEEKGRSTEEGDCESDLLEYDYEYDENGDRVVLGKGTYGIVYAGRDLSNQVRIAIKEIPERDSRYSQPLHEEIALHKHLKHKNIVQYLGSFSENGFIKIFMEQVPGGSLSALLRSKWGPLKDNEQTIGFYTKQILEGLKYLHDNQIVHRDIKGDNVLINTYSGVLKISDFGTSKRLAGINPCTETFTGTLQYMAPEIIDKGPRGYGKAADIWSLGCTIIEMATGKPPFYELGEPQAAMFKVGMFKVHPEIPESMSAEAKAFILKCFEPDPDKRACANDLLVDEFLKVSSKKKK
Chain of IGF-IR (h) (P08069 959-1367 limits assumed): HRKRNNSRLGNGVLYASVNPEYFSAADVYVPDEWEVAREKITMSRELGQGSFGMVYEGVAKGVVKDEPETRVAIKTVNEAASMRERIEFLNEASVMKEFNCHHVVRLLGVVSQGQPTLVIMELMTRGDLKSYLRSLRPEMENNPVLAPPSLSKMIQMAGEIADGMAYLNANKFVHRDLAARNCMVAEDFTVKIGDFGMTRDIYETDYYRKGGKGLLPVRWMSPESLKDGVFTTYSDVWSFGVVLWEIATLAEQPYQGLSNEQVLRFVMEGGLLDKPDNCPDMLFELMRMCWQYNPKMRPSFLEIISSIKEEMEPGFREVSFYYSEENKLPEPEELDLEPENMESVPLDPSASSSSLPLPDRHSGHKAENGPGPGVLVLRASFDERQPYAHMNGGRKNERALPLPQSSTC
Chain of MSK2 (h) (O75676 whole entry): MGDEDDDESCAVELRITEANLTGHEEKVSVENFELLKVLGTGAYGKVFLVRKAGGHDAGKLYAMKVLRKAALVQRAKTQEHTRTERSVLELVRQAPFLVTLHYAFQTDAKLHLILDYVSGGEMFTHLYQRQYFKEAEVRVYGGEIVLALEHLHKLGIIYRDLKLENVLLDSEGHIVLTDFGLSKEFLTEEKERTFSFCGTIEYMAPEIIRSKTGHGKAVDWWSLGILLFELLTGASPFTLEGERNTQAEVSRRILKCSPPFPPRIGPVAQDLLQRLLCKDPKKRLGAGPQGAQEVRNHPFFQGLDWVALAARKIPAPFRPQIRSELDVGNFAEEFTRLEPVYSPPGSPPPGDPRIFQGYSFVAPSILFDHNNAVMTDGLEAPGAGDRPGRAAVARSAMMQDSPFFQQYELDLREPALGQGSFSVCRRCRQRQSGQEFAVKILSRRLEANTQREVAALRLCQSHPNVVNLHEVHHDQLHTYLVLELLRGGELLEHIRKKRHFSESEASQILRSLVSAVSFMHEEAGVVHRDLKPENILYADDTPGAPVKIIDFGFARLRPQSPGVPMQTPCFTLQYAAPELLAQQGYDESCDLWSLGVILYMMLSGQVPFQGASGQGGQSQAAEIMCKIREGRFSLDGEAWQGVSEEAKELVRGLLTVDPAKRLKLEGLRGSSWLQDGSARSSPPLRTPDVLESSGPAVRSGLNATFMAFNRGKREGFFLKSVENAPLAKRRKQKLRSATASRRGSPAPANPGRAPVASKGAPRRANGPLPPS
Chain of Pim-1 (h) (P11309 whole entry): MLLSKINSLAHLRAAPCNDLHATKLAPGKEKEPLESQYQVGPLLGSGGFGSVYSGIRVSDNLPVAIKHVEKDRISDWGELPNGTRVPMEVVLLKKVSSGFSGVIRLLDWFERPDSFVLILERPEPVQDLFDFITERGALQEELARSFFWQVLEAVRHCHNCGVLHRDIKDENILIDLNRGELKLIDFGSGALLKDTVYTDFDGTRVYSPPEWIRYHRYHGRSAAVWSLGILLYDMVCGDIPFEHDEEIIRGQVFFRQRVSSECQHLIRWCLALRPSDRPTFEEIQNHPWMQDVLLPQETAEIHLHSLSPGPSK
Chain of PKB β (h) (P31751 whole entry): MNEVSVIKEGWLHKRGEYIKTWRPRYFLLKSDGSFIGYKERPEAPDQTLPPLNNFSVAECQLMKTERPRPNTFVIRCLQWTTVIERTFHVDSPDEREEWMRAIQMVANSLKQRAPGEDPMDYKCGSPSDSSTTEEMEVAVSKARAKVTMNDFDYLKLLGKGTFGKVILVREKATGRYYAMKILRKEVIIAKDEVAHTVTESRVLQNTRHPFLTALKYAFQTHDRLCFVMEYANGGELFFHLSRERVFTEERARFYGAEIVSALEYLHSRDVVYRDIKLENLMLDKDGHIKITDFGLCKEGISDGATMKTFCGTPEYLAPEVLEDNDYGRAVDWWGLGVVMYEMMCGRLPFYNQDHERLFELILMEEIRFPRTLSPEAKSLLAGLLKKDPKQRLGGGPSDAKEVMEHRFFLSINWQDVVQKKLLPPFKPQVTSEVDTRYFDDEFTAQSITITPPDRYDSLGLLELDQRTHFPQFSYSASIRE

On to FAKLAARLYRKALARQLGVAA, for which the “Profile-1 @ = 100 µm (kinase profiler assay)” value (“Profile-1 @ = 100 µm” below) in [1] was 101; in assay [2] it was 69; in [3], -11; in [4] it was 89; in assay [5], 16; in assay [6], 5. Also, the “Profile-1 @ = 100 µm” value stood at 18 in assay [7]; 20 in [8]; 1 in assay [9]; 41 in assay [10]; 5 in assay [11]; 14 in [12]. Also, the “Profile-1 @ = 100 µm” value in assay [13] was 19; in [14], 24; in assay [15], 92; in assay [16], 53.
